Data on 8 molecules can be found in patent US20230265151A1, “GIP/GLP1 CO-AGONIST COMPOUNDS” (priority 2020, published 2023).

*1 amine or outer side, *2 acyl side, *3 side chain or, on linkers, in order; H or OH if unused. Where no end group is shown, it is not given here. Side-chain parts run from the residue outwards. [ ]: non-standard residue; d: D form. The star is where a group is joined. Decanoyl(10-(4-HOOC-PhO)) = O=C(O)c1ccc(OCCCCCCCCCC(=O)*)cc1; αMePhe(2-F) = C[C@](N)(Cc1ccccc1F)C(=O)O; γGlu = O=C(O)[C@H](CCC(=O)[*:2])N[*:1]; C14 diacid = O=C(O)CCCCCCCCCCCCC(=O)*; αMeY = C[C@](N)(Cc1ccc(O)cc1)C(=O)O; αMeL = CC(C)C[C@](C)(N)C(=O)O; Orn = NCCC[C@H](N)C(=O)O; AEEA = NCCOCCOCC(=O)O; Aib = CC(C)(N)C(=O)O

Common to all, as to experiment: cell-based or functional assay
Assay [1] deals with human GLP-1 receptor (human, UniProt P43220 24-463).
Assay [2] concerns the target human glucagon receptor (human, UniProt P47871 26-477).
Target sequence in this assay (P47871 26-477): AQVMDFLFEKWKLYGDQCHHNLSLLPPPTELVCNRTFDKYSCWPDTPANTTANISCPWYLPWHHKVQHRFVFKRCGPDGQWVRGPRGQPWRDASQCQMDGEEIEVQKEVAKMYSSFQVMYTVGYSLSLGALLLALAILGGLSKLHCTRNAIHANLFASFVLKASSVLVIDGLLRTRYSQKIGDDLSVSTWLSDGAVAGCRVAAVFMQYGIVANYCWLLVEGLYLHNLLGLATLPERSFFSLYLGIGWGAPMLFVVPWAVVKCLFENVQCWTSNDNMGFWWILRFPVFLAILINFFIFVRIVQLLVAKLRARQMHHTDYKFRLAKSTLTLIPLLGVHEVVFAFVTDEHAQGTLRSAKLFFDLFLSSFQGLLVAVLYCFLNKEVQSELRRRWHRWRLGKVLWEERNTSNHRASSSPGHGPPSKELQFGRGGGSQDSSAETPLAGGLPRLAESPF
Assay [3] addresses T1, human GIP receptor (human, UniProt P48546 22-466).
T1 sequence (looked up): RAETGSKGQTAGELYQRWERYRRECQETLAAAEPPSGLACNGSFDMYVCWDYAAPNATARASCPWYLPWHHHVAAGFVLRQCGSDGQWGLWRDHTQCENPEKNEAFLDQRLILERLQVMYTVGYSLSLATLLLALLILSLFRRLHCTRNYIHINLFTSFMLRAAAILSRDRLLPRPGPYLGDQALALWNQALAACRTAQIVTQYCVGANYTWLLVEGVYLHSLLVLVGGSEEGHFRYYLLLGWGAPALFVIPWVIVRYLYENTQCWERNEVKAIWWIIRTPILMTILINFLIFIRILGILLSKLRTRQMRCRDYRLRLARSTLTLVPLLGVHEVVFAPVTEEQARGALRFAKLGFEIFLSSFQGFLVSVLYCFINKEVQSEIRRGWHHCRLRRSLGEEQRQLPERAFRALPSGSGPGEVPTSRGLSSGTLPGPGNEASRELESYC

Assay [4] has as its target T2, human GIP receptor (human, UniProt P48546 22-466).
T2 sequence (looked up): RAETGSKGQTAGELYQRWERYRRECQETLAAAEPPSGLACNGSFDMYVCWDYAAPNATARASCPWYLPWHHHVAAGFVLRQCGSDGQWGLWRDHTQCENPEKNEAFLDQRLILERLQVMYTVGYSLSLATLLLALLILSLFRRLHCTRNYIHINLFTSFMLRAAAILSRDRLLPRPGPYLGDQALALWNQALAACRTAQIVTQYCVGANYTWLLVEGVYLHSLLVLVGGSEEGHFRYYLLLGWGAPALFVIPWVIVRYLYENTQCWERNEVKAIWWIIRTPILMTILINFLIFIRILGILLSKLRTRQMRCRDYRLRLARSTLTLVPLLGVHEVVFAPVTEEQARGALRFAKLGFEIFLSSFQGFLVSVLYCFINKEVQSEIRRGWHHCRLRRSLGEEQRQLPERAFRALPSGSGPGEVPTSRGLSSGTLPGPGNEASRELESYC
This is another data set of the same source.

The target in assay [5] is human glucagon receptor (human, UniProt P47871 26-477). This is another data set of the same source.
For assay [6], the target named is human GLP-1 receptor (human, UniProt P43220 24-463). This is another data set of the same source.
In assay [7] the target is human glucagon receptor (human) (UniProt P47871).
Assay [8] concerns the target T3, human GIP receptor (human) (UniProt P48546).
T3 sequence (looked up): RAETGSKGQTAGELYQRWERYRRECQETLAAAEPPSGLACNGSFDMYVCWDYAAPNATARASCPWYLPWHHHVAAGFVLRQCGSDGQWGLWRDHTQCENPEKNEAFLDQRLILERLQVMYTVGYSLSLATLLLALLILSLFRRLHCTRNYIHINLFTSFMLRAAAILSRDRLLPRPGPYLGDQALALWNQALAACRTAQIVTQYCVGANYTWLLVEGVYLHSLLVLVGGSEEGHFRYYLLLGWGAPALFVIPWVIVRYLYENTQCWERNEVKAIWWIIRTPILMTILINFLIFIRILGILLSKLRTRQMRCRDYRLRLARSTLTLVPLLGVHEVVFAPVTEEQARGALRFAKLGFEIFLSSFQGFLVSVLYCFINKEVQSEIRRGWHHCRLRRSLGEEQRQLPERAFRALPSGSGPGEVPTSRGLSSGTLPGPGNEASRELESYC

For the next assay, the target named is hGLP-1R (Homo sapiens, UniProt P43220).

B1: Example 363 (peptide)
peptide: YXEGTXTSDYXIXLDXIAQXEFIKXLIKGGPSSGAPPPS
modifications: Y-Aib-EGT-αMeF(2F)-TSDY-Aib-I-αMeL-LD-Orn-IAQ-Aib-EFIK((2-[2-(2-Amino-ethoxy)-ethoxy]-acetyl)2-(γ-Glu)-(2-[2-(2-Amino-ethoxy)-ethoxy]-acetyl)-CO-(CH2)12-CO2H)-αMeY-LIK((2-[2-(2-Amino-ethoxy)-ethoxy]-acetyl)2-(γ-Glu)-(2-[2-(2-Amino-ethoxy)-ethoxy]-acetyl)-CO-(CH2)12-CO2H)GGPSSGAPPPS-NH2
In the case of B1, the “cAMP EC50 (1.0% HSA)” value is 14.3 nM in the assay with human GLP-1 receptor [1], over 9950 nM in the assay with human glucagon receptor [2] and 0.976 nM with human GIP receptor [3].

B2: Example 364 (peptide)
peptide: YXEGTXTSDYXIXLDXIAQXEFIKXLIKGGPSSGAPPPS
modifications: Y-Aib-EGT-αMeF(2F)-TSDY-Aib-I-αMeL-LD-Orn-IAQ-Aib-EFIK((2-[2-(2-Amino-ethoxy)-ethoxy]-acetyl)-(γ-Glu)-(2-[2-(2-Amino-ethoxy)-ethoxy]-acetyl)2-CO-(CH2)12-CO2H)-αMeY-LIK((2-[2-(2-Amino-ethoxy)-ethoxy]-acetyl)-(γ-Glu)-(2-[2-(2-Amino-ethoxy)-ethoxy]-acetyl)2-CO-(CH2)12-CO2H)GGPSSGAPPPS-NH2
As for B2, the “cAMP EC50 (1.0% HSA)” value with human GLP-1 receptor [1] was 13 nM; with human glucagon receptor [2], over 9950 nM; in the assay with human GIP receptor [3] it was 0.895 nM.

B3: Example 337 (peptide)
peptide: YXEGTXTSDXXIXLDXKAQXEFIXXLIKGGPSSGAPPPS
modifications: Y-Aib-EGT-αMeF(2F)-TSD-4Pal-Aib-I-αMeL-LD-Orn-K((2-[2-(2-Amino-ethoxy)-ethoxy]-acetyl)-(γ-Glu)-CO-(CH2)12-CO2H)AQ-Aib-EFI-(D-Glu)-αMeY-LIK((2-[2-(2-Amino-ethoxy)-ethoxy]-acetyl)-(γ-Glu)-CO-(CH2)12-CO2H)GGPSSGAPPPS-NH2
As to B3, the “cAMP EC50 (1.0% HSA)” value with human GIP receptor [4] was 2.65 nM; with human glucagon receptor [5], over 10100 nM; in the assay with human GLP-1 receptor [6] it was 53.6 nM. Also, the cAMP EC50 in [7] was over 10100 nM; in assay [8] it was 0.0151 nM; with hGLP-1R it was 0.444 nM. The cAMP Emax in [8] came out at 103%; with hGLP-1R, 107%.

Regarding Y[Aib]EGT[αMePhe(2-F)]TSDV[Aib]I[αMeL]LD[Orn]K([AEEA-AEEA-γGlu-C14 diacid])AQ[Aib][Orn]FI[dE][αMeY]LIK([AEEA-AEEA-γGlu-C14 diacid])GGPSSGAPPPS-NH2 [Example 350], the results for the “cAMP EC50 (1.0% HSA)” value in the assay with human GIP receptor [4], with human glucagon receptor [5] and with human GLP-1 receptor [6] were 5.82 nM, over 9950 nM and 6.4 nM, respectively. In addition, the “cAMP Emax (1.0% HSA)” value with human GLP-1 receptor [6] was 91.4%. Also, the figures for the cAMP EC50 (in assay [7]; in assay [8]; in the assay with hGLP-1R) were over 9950 nM, 0.0288 nM and 0.202 nM, respectively. Moreover, the values for the cAMP Emax (in [8]; in the assay with hGLP-1R) were 101% and 95.9%, respectively.

Turning to Y[Aib]EGT[αMePhe(2-F)]TSDV[Aib]I[αMeL]LD[Orn]IAQ[Aib]K([AEEA-AEEA-γGlu-Decanoyl(10-(4-HOOC-PhO))])FI[dE][αMeY]LIK([AEEA-AEEA-γGlu-Decanoyl(10-(4-HOOC-PhO))])GGPSSGAPPPS-NH2 [Example 330], the “cAMP EC50 (1.0% HSA)” value with human GIP receptor [4] was 6.26 nM; with human glucagon receptor [5], over 9950 nM; with human GLP-1 receptor [6] it was 85.2 nM. Besides, the “cAMP Emax (1.0% HSA)” value was found to be 103% in the assay with human GIP receptor [4] and 85% in the assay with human GLP-1 receptor [6]. For the same molecule, the figures for the cAMP EC50 (in [7]; in assay [8]; with hGLP-1R) were over 9950 nM, 0.0185 nM and 0.477 nM, respectively. Moreover, the cAMP Emax in assay [8] was 112%; with hGLP-1R, 103%.

B4: Example 341 (peptide)
peptide: YXEGTXTSDXXIXLDXIAQXKFIXXLIEGGPSSGAPPPSK
modifications: Y-Aib-EGT-αMeF(2F)-TSD-4Pal-Aib-I-αMeL-LD-Orn-IAQ-Aib-K((2-[2-(2-Amino-ethoxy)-ethoxy]-acetyl)-(γ-Glu)-CO-(CH2)12-CO2H)FI-(D-Glu)-αMeY-LIEGGPSSGAPPPSK((2-[2-(2-Amino-ethoxy)-ethoxy]-acetyl)-(γ-Glu)-CO-(CH2)12-CO2H)-NH2
For B4, the entries for the “cAMP EC50 (1.0% HSA)” value with human GIP receptor [4], with human glucagon receptor [5] and with human GLP-1 receptor [6] were 5.74 nM, over 9950 nM and 95.8 nM, respectively. Moreover, the “cAMP Emax (1.0% HSA)” value stood at 83.6% in the assay with human GIP receptor [4] and 113% with human GLP-1 receptor [6]. Further, the cAMP EC50 in assay [7] is over 9950 nM; in assay [8], 0.0127 nM; with hGLP-1R, 0.329 nM. Besides, the cAMP Emax in [8] turned out to be 91.4%; with hGLP-1R, 99.9%.

B5: Example 329 (peptide)
peptide: Y[Aib]EGT[αMePhe(2-F)]TSDV[Aib]I[αMeL]LD[Orn]IAQ[Aib]K([AEEA-AEEA-γGlu-C14 diacid])FI[dE][αMeY]LIK([AEEA-AEEA-γGlu-C14 diacid])GGPSSGAPPPS-NH2
modifications: N-terminus assumed
SMILES: CC[C@H](C)[C@H](NC(=O)[C@H](CCCN)NC(=O)[C@H](CC(=O)O)NC(=O)[C@H](CC(C)C)NC(=O)[C@](C)(CC(C)C)NC(=O)[C@@H](NC(=O)C(C)(C)NC(=O)[C@@H](NC(=O)[C@H](CC(=O)O)NC(=O)[C@H](CO)NC(=O)[C@@H](NC(=O)[C@](C)(Cc1ccccc1F)NC(=O)[C@@H](NC(=O)CNC(=O)[C@H](CCC(=O)O)NC(=O)C(C)(C)NC(=O)[C@@H](N)Cc1ccc(O)cc1)[C@@H](C)O)[C@@H](C)O)C(C)C)[C@@H](C)CC)C(=O)N[C@@H](C)C(=O)N[C@@H](CCC(N)=O)C(=O)NC(C)(C)C(=O)N[C@@H](CCCCNC(=O)COCCOCCNC(=O)COCCOCCNC(=O)CC[C@H](NC(=O)CCCCCCCCCCCCC(=O)O)C(=O)O)C(=O)N[C@@H](Cc1ccccc1)C(=O)N[C@H](C(=O)N[C@H](CCC(=O)O)C(=O)N[C@@](C)(Cc1ccc(O)cc1)C(=O)N[C@@H](CC(C)C)C(=O)N[C@H](C(=O)N[C@@H](CCCCNC(=O)COCCOCCNC(=O)COCCOCCNC(=O)CC[C@H](NC(=O)CCCCCCCCCCCCC(=O)O)C(=O)O)C(=O)NCC(=O)NCC(=O)N1CCC[C@H]1C(=O)N[C@@H](CO)C(=O)N[C@@H](CO)C(=O)NCC(=O)N[C@@H](C)C(=O)N1CCC[C@H]1C(=O)N1CCC[C@H]1C(=O)N1CCC[C@H]1C(=O)N[C@@H](CO)C(N)=O)[C@@H](C)CC)[C@@H](C)CC
On to B5, for which the figures for the “cAMP EC50 (1.0% HSA)” value with human GIP receptor [4], with human glucagon receptor [5] and with human GLP-1 receptor [6] were 5.44 nM, over 9950 nM and 74.7 nM, respectively. The “cAMP Emax (1.0% HSA)” value in the assay with human GIP receptor [4] was 100%; with human GLP-1 receptor [6] it was 88.3%. Also, the values for the cAMP EC50 (in [7]; in assay [8]; in the assay with hGLP-1R) were over 9950 nM, 0.015 nM and 0.353 nM, respectively. Further, the cAMP Emax in [8] amounted to 109%; in the assay with hGLP-1R, 104%.

With Y[Aib]EGT[αMePhe(2-F)]TSDV[Aib]I[αMeL]LD[Orn]IAQ[Aib][Orn]FIK([AEEA-AEEA-γGlu-Decanoyl(10-(4-HOOC-PhO))])[αMeY]LIK([AEEA-AEEA-γGlu-Decanoyl(10-(4-HOOC-PhO))])GGPSSGAPPPS-NH2 [Example 356], the “cAMP EC50 (1.0% HSA)” value with human GLP-1 receptor [1] was 23.4 nM; with human glucagon receptor [2], over 9950 nM; with human GIP receptor [3], 2.47 nM. In the assay with human GIP receptor [3], the “cAMP Emax (1.0% HSA)” value is 82.7%.
